Details in all cases: other: OCT2-mediated uptake, HEK293, 2 min, Michaelis–Menten fit; pH 7.4
Substrate in series [1]: CC(Cc1ccc(O)cc1)NCC(O)c1cc(O)cc(O)c1
Put plainly: cells, lysate or membranes named.

Substrate in series [2]: CCCC[N+]1(C)[C@@H]2C[C@@H](OC(=O)[C@H](CO)c3ccccc3)C[C@H]1[C@@H]1O[C@@H]12
Put plainly: Uptake in HEK293 cells stably overexpressing human OCT2. The format is in vitro ADME.
Procedure: (§1) The total uptake is shown for the overexpressing and control cells (left hand side). OCT2-mediated uptake (right hand side) was calculated by subtracting the uptake of control cells (pcDNA5) from the uptake of OCT2-overexpressing cells. The means and standard errors of the means are shown for at least three independent experiments.
(§2) Cells were cultured in Dulbecco’s Modified Eagle’s Medium (DMEM) supplemented with 10% FBS, 100 U/mL penicillin, and 100 µg/mL streptomycin at 37 °C and 5% CO2. Cells were passaged twice a week.
(§3) At 48 h prior to the experiment, 6 × 10^5 cells were seeded per well in 12-well plates pre-coated with poly-D-lysine.
(§4) Cellular uptake experiments were performed at 37 °C and pH 7.4 using Hanks’ Buffered Salt Solution (HBSS) supplemented with 10 mM HEPES (referred to as HBSS+ in the following). Cells were washed with 1 mL pre-warmed (37 °C) HBSS+ and uptake was initiated by adding 400 µL of pre-warmed HBSS+ containing the substrate. Uptake was allowed for exactly 2 min and stopped by adding 2 mL ice-cold HBSS+. Cells were washed twice with 2 mL ice-cold HBSS+ then lysed with 80% acetonitrile supplemented with internal standard. The intracellularly accumulated substrate concentrations were measured using LC-MS/MS as described in the following and normalized to the amount of total protein in the samples as measured using the bicinchoninic acid assay [49].
(§5) Intracellular substrate concentrations were quantified using LC-MS/MS. […] The pellet was reconstituted with 200 µL 0.1% formic acid and between 5 and 10 µL was injected into the LC-MS/MS system (Table S2).
(§6) An API4000 QTRAP tandem mass spectrometer with ESI interface (AB SCIEX, Darmstadt, Germany) coupled to a Shimadzu Nexera X2 UHPLC system with LC 30AD pumps and SiL 30AC autosampler (Shimadzu, Duisburg, Germany) was used for analysis.
(§7) Intrinsic clearance CLint was calculated by dividing vmax by KM for each experiment.

Substrate in series [3]: O=C(O[C@H]1C[C@H]2CC[C@@H](C1)[N+]21CCCC1)C(O)(c1ccccc1)c1ccccc1
Procedure: as §1, §2, §3, §4, §5, §6, §7
The description is as above. The class given is in vitro ADME.

B1: human OCT2 (Homo sapiens) (protein)
chain: MPTTVDDVLEHGGEFHFFQKQMFFLLALLSATFAPIYVGIVFLGFTPDHRCRSPGVAELSLRCGWSPAEELNYTVPGPGPAGEASPRQCRRYEVDWNQSTFDCVDPLASLDTNRSRLPLGPCRDGWVYETPGSSIVTEFNLVCANSWMLDLFQSSVNVGFFIGSMSIGYIADRFGRKLCLLTTVLINAAAGVLMAISPTYTWMLIFRLIQGLVSKAGWLIGYILITEFVGRRYRRTVGIFYQVAYTVGLLVLAGVAYALPHWRWLQFTVSLPNFFFLLYYWCIPESPRWLISQNKNAEAMRIIKHIAKKNGKSLPASLQRLRLEEETGKKLNPSFLDLVRTPQIRKHTMILMYNWFTSSVLYQGLIMHMGLAGDNIYLDFFYSALVEFPAAFMIILTIDRIGRRYPWAASNMVAGAACLASVFIPGDLQWLKIIISCLGRMGITMAYEIVCLVNAELYPTFIRNLGVHICSSMCDIGGIITPFLVYRLTNIWLELPLMVFGVLGLVAGGLVLLLPETKGKALPETIEEAENMQRPRKNKEKMIYLQVQKLDIPLN
notes: expressed in transfected cells; host or cells: HEK293 (Flp-In system)
Regarding B1, the Km (in general, the substrate concentration at which the rate is half of its maximum) in series [1] turned out to be 8.81 ± 0.55 µM. Further, in series [2], the Km came to 7.62 ± 0.85 µM, the Vmax (commonly the rate approached at saturating substrate) turned out to be 0.000616 µmol/min/mg and the Vmax/Km stood at 81.6 µL/min/mg. In series [3], the Km was found to be 0.49 ± 0.15 µM, the Vmax was 0.000119 µmol/min/mg and the Vmax/Km amounted to 278 µL/min/mg.

(Values after paper PMC9102066, “Cloning and Functional Characterization of Dog OCT1 and OCT2: Another Step in Exploring Species Differences in Organic Cation Transporters” (International Journal of Molecular Sciences, 2022).)
